Test results: paper PMC5643538, “Direct visualization of critical hydrogen atoms in a pyridoxal 5′-phosphate enzyme” (Nature Communications, 2017)

Biological target: the molecule itself
Experiment: crystal structure; joint neutron (2.2 Å) and X-ray (2.0 Å) structure at room temperature, pH 7.5, crystal soaked with 300 mM alpha-methyl-DL-aspartate; homodimer in one asymmetric unit

B1: recombinant porcine cytosolic aspartate aminotransferase (enzyme)
chain: MAPPSVFAEVPQAQPVLVFKLIADFREDPDPRKVNLGVGAYRTDDCQPWVLPVVRKVEQRIANDSSLNHEYLPILGLAEFRTCASRLALGDDSPALQEKRVGGVQSLGGTGALRIGAEFLARWYNGTNNKDTPVYVSSPTWENHNGVFTTAGFKDIRSYRYWDTEKRGLDLQGFLSDLENAPEFSIFVLHACAHNPTGTDPTPEQWKQIASVMKRRFLFPFFDSAYQGFASGNLEKDAWAIRYFVSEGFELFCAQSFSKNFGLYNERVGNLTVVAKEPDSILRVLSQMEKIVRVTWSNPPAQGARIVARTLSDPELFHEWTGNVKTMADRILSMRSELRARLEALKTPGTWNHITDQIGMFSFTGLNPKQVEYLINEKHIYLLPSGRINMCGLTTKNLDYVATSIHEAVTKIQ
modifications: pyridoxal 5'-phosphate covalently linked to K258 (internal aldimine; chain B at pH 7.5, both chains at pH 4.0); in chain A at pH 7.5 PLP is linked to alpha-methylaspartate (external aldimine) and K258 is free; protein deuterated
notes: aspartate aminotransferase, cytosolic, pig; the construct and its tag are not described here; also called AAT; source: E. coli T7 Express LacIQ, deuterated (minimal medium with 100% D2O), purified (Ni-NTA)
- stoichiometry N: 2
